This series can be described thus: soluble on expression in E. coli; label from the status in PepcDB or PDB records.
“MENSHKRGRPDILHQALLVILTDPVIKGDIFIHTIQSKIIKVNPNMRPPKNYLRFIGLMEQLLKYGKIPINGDETLMEVTNLTLDNIVNRYDLILLSEKGEKINPEEICKLDEKWLLGIGAFPHGDFSDKILNLAKKIYSISGFPLETQQVLCRIFSACNS”: the “soluble on expression in E. coli” value is “soluble”.

For the sequence “AVSGLYSSSDDVIELTPSNFNREVIQSDGLWLVEFYAPWCGHCQRLTPEWKKAATALKDVVKVGAVNADKHQSLGGQYGVQGFPTIKIFGANKNKPEDYQGGRTGEAIVDAALSALR”, the “soluble on expression in E. coli” value is “soluble”.

With “MSTAEQRMDTSEVELPNDNVNEQGNKTPRADQPESSASGARNHGEDEEVTEQVELAAMETEASDSIVDNVPKTPRRAGRPKKLPSTSTAAAESAVTPGKRGRKRKGSESVNTTINSTMNSTLNEPKTPGRKQAKLVAPLLTYDLFAPSIIGDRVLSCGEGEALGHPGRTTTKKPRKVDIFEEEGLKPLQAVAGGVHSAVLTSEGEVYMCGINEKGTVPAEGVEKEGSTDEFAKVKFEEDIEKEGKIVMLAAGASFTAALTDQGSVIAWGNLRNSNGNVDVHPLLHKMQEAPVVIVHQAKRKIVKIAAGENHLVMLDEKGCLLTFGDGEMGQLGRSSRTKTIRSKYMCDESGDHLLVPLRFKHKGKFFDVVAKNVFASGFWTIVHGEDGKYYAFGLNNYAQLGIKVDEADVGQDGQDNRELRVFLPAEAPAFGAERTFVNIEGVQHVVILGSDGKVFAMGKNTDNALGLGNWTGKDDQQHWLYDTIQEIEFDSKIVGVSAKLATSIAWSEDGTAYAWGFDTTGQLGLGLKDEDEKMVSKPEEISSAHLDGYSIIGASISDQHTLIIAKKN”, the “soluble on expression in E. coli” value was “soluble”.

“MTPLERYQADLQRPDFFHDAAQANAVKHLQRLYDDLVAADHAKPGLFGKLLGRKSGGPVKGLYFWGGVGRGKTYLVDTFFESLPFEQKVRTHFHRFMKRVHEELKTLKGEKNPLTIIGKRFADEARVICFDEFFVSDITDAMILATLLEELFKNGVSLVATSNIVPDGLYKDGLQRARFLPAIALLKEHTEIVNVDSGVDYRLRALEQAELFHWPLSEQVEEEMARSFKALTPDCAKAQRDEALMIENREIRARLTCDDVAWFEFRELCDGPRSQNDYIELAKIFHAVLISNVEQMGVTKDDMARRFINLVDEFYDRSVKLIISAEVELKDLYSGGRLEFEFQRTLSRLLEMQSHEYLTRPHRPAAALEHHHHHH”: the “soluble on expression in E. coli” value was “not soluble”.

Regarding “TRNFEWIVGGNITRSRDKIKSLGGEEQIVLSYDNGVQMVNRVGESPYQFYGYQADGVYSTQAEADAANLSNRTGRRYNAGDVRFVDQNGDNRIDDKDRILLGSAAPSYFGGFYTQLKYKGFALSAEFSYSKDNIAYNAVRQQLEAVSTTNNQSIAAVNRWTVEGQKTDMPKATWKDPVGNSYFSSRWMEDASYLRMKNVTLSYTFSKTLWNFFRSGTIYVTGENLLTFTDYLGMDPEFSYSYAENMQGFDNAKLMQPKTVKMGVNLKF”, the “soluble on expression in E. coli” value is listed as “not soluble”.

As to “MGHHHHHHSHMFSEECIMDVIGCLEYDPALSQPRKHREFLTKTAKFKEVIPISDPELKQKIHQTYRVQYIQDMVLPTPSVFEENMLSTLHSFIFFNKVEIVGMLQEDEKFLTDLFAQLTDEATDEEKRQELVNFLKEFCAFSQTLQPQNRDAFFKTLSNMGILPALEVILGMDDTQVRSAATDIFSYLVEYNPSMVREFVMQEAQQNDDVSKKLTEQKITSKVNIICTNSKYLYIGSYNCFYYSF”, the “soluble on expression in E. coli” value is on record as “soluble”.

On to “MFKSVAKLGKSPIFYLNSQRLIHIKTLTTPNENALKFLSTDGEMLQTRGSKSIVIKNTDENLINHSKLAQQIFLQCPGVESLMIGDDFLTINKDRMVHWNSIKPEIIDLLTKQLAYGEDVISKEFHAVQEEEGEGGYKINMPKFELTEEDEEVSELIEELIDTRIRPAILEDGGDIDYRGWDPKTGTVYLRLQGACTSCSSSEVTLKYGIESMLKHYVDEVKEVIQIMDPEQEIALKEFDKLEKKLESSKNTSHEK”, for which the “soluble on expression in E. coli” value is “soluble”.

Consider “MGSDKIHHHHHHMQVPKVTLNNGVEMPILGYGVFQIPPEKTEECVYEAIKVGYRLIDTAASYMNEEGVGRAIKRAIDEGIVRREELFVTTKLWVSDVGYESTKKAFEKSLKKLQLEYIDLYLIHQPFGDVHCAWKAMEEMYKDGLVRAIGVSNFYPDRLMDLMVHHEIVPAVNQIEIHPFYQRQEEIEFMRNYNIQPEAWGPFAEGRKNIFQNGVLRSIAEKYGKTVAQVILRWLTQKGIVAIPKTVRRERMKENISIFDFELTQEDMEKIATLDEGQSAFFSHRDPEVVKWICSLKR”, for which the “soluble on expression in E. coli” value is recorded as “soluble”.

Consider “MAHHHHHHMWNGPTYAIARVRWDSVVRTFSACGTSLASPQRRFSSWFEEQPGGGQHNVEDKAVAAFAVNADRLEKGKTIIKKKAHGIPFHISDAEAVDNVCRHHGAAVEIHSVERFLMPFWLTETSAAGTFKADLLQHDRMNITQPHYFLWLEGPRYQFNYPFGEYMPMNQVSASYREPLKVVERCLTGTHVPSMLLSRFELLHEVEKMEHRPTVIPFTMSTVTALSVIERRVNRRVVLDRIDRELRKFHGSFLKSNVSVMSLQMVASSIRPAFLPLFKLTVSTISHSTPVPAFICGATGKVVGPVLHVQRRKRLGLAAAAAVGTLLSLAPLVEPGVATAAALAVVASSGFVQQAVQRARFVREQAHQMAQLKSVGVLNLVADSTGYRWTPEEEEKEEYEYREELRRQARARDAFEQRVKEEAARDRVRAHGTHFDPKNRRRTDLADVDPRGYYELLGLKGKEFSATAKDITKAFREAVRIHHPDVHPEGEAENKKRHMQRIIEAYKILHNPKTKKFYDSGEMSGKSQETS”, for which the “soluble on expression in E. coli” value is listed as “not soluble”.

Take “MLNSNNHQTEWKWPRLIQIMEIGNSAMKNTMSKTLYMSYNFIARTSGKTYHAPVLVVDCSVNEGWLWMRICHNCLGCLCTGYWAAQRTFATTTGLRLVWL”: the “soluble on expression in E. coli” value was “soluble”.

Turning to “MTTVQTSVYEPLTEPKAVSLAVRLGLFRDGAPLACREIGDGNLNLVFHIVDQETKQGVIIKQALPYAKVVGESWPLTLKRAVIESNALRTFASYVPQYVPKVYYSDESLAITVMEDLSRLQIARKGLIEGKTYPLLSQHIGEFVAKTAFYTSDFGMNQQEKKKLAQSFVNPELCKITEDLVFTDPFFDHETNNFEDELRPDVEALWRDDRLHLEAAKLKRKFLTEADVLLHGDLHTGSIFVSADETKVIDPEFAFYGPIGFDLGQFFANLLLNALSRSELERQPLFDHIDRTWDVFASVFSNLWCTESVETYAATPGLLEDVLRHAFIDAVGFAGCEVIRRTIGLAHVADLDGIEHKDERLVAKRHALRLGRRLIIERRVFTGTEDFRRLFAETEQ”, the “soluble on expression in E. coli” value is given as “not soluble”.

For the sequence “MSLKDSEVTVLGAGVAGLAVARALALRGAEVTVLEQAEAIREVGAGLQISPNGAAVLRALGLGDALEAASMRAQAVELRNGVGGDLVLKLDLARLRPGQGYHLMHRADLIDLLAQGAREAGVQIRLLQKIEAVDLGGPRPRLVTAQGAEYAPNLLIGADGLHSLVRAELNGPAQPFFTNQVAWRTVIPATPGEPVVAEVHMGEGRHLVSYPMRGGTVRNIVAVEERKRWVQEGWNLRDDPVDLRLAFAGFNGRVRHWLEQVPDVWLWGLFRHPVAHTWYRGHAAILGDAAHPTLPFLAQGANMALEDAWVLAECLARHSNIKGGLADYQARRVPRCCRVVQAANNNAWAYHLRSPIREIAHLGLRLGSRLLPGPTLRRFDWLYGYDVTAASLEHHHHHH”, the “soluble on expression in E. coli” value is recorded as “soluble”.

Consider “MSDLFIHPELRFHSYGTWLRRRFGCNVSKVNVDGGFTCPNRDGSRGTGGCIYCDNASFSPGGTVPDKSIELQMAEGMAYHRQRLGSEKFIIYFQKFTNTYAPAARLRDLYTRALSHPDVVGISVGTRPDALADEALELLADLAQEHYVCIELGLQSMDDAILERINRGHTLDEYLRTVDRIAGRGIALCTHLIYGFPGETREGFLKTAHLLAGLPVDSVKLHQLHAVKGTRLAELYHRREFVPITLAEYVTTACDFLELLPPRI”, for which the “soluble on expression in E. coli” value was “not soluble”.

“LTCESVRSTDSPHFAMLDALYARAFPCHEQRESEAKRQALSHPRYALEAWFDEGVFVGLSGCWQFAGYGYIEHLAIDDTLRSRGYGKQLLAQILTRAPLTILEIDPLTTAIAHKRLRFYQSMGFHANPWAHHHPSYHQGIADHELLVLSYPQP”: the “soluble on expression in E. coli” value is recorded as “not soluble”.

On to “MQSLDIKPTVGLIACCECGVAIEPNPANMCSGCLRSRVDITEGITRQCTIYMCKFCDRYFVPPSAWMRAELESKELLSICLKKLKPMLTKVRLTDACFVWTEAHSKRIKVKITIQKEVFTNTILQQAVVVEFTVHSQLCDDCRRAEAKDFWRACVQVRQRAEFKKTLFYLEQLLLKHSAHKECTGVKPVPTGIDFYFAKQQEARKFVDFLMTVLPCKYHYAQELVSHDTKNNTYDYKHTFCVEIVPICRDNIVCLPKKQAQQYGNMSQIVLCLRVSNVITLIDPNNLQLVDVQATNFWREPFDSLCGPKQLTEFYVLDVEPVNNFERKAGHGYVSKKHELADVWLVRSDQVGMSDAQSLSARTHIGHLLSPGDLVMAFDMKNCNVNNATFDAMNIDNVPDAIIVRKVFDRTRRTAKRQWKLKRLVVDGNIVGNETASVADEFQGFMEDIEEDALMREKINIYKDAEKGPNVDGDDAEDHPDAPTLAEMLDDLKFDDEEMKEAESAEDDEAMQE”, for which the “soluble on expression in E. coli” value was “not soluble”.

For “MENNVESNLQPVPMRYGDKRYYSWNQHLREQFGEKVFKVPLDAGFDCPNRDGNVASGGCTFCSERGSGDFAGDRKDDLVTQFHTIKERMHKKWTSGKYIGYFQAYTNTYAPVETLREYYEVILEQEGVVGLAIATRPDCLPDDVVEYLAELNKRTYLWVELGLQTVHERTALLINRAHDYQCYVDGVNKLRKHGIRVCSHIINGLPLENHQMMMETAKEVAKLDVQGIKIHSLHLLKRTPMVKQYEKGLVEFMSLEEYVNLVVDQLEVLPPHMIIHRLMGDGPGDLMIGPMWSMKKWEVLNAIEAELERRDSWQGKHYRAQVEVQ”, the “soluble on expression in E. coli” value is recorded as “not soluble”.

As for “AKHLFTSESVSEGHPDKIADQISDAVLDAILEQDPKARVACETYVKTGMVLVGGEITTSAWVDIEEITRNTVREIGYVHSDMGFDANSCAVLSAIGKQSPDINQGVDRADPLEQGAGDQGLMFGYATNETDVLMPAPITYAHRLVQRQAEVRKNGTLPWLRPDAKSQVTFQYDDGKIVGIDAVVLSTQHSEEIDQKSLQEAVMEEIIKPILPAEWLTSATKFFINPTGRFVIGGPMGDCGLTGRKIIVDTYGGMARHGGGAFSGKDPSKVDRSAAYAARYVAKNIVAAGLADRCEIQVSYAIGVAEPTSIMVETFGTEKVPSEQLTLLVREFFDLRPYGLIQMLDLLHPIYKETAAYGHFGREHFPWEKTDKAQLLRDAAGLK”, the “soluble on expression in E. coli” value is “soluble”.

As to “MATQLLMPKATAVWLVDNTALTFDQIAEFCKLHVLEVKAIADGEAAYGIKGLDPISSGQLTRSEIARVEADKNARLKISQSKVHIPEKKRKGARYIPLSRRQDRPNGILWLVTNHPELKDAQIARLIGTTKGTIEQIRNRTHWNSANLVALDPVGLGLCLQIDLDIELKRAAKNRPLSNEEDKSLLPASVTENVAIHEKEHEQDFNKNFDADKVFAKLNALQKNRENDASTELEHHHHHH”, the “soluble on expression in E. coli” value is given as “soluble”.

Take “GAMGPREVTMKKGDILTLLNSTNKDWWKVEVNDRQGFVPAAYVKKLDSGTGKELVLALYDYQESGDNAPSYSPPPPP”: the “soluble on expression in E. coli” value is reported as “soluble”.

In the case of “MSTSTVETGYGGRIRVTVARNDRDITSEVRTFLCNKENANKIIGLDTERSVVGGDSEYPPESKLVILELSDGQNCLIIPLPYVQGNKLPVSLTNFLNLPDFTFTGVGINKALKMLKSECGLTCKNAVDIGPSSPIYEDWDNDSLTEDQINLAAANAYLAFKVGNLIREAMY”, the “soluble on expression in E. coli” value is listed as “soluble”.

The record behind these values is the DeepSol protein solubility set.
